The target of one assay is RET M918T (Homo sapiens, UniProt P07949, M918T). In words: LIMS-Kinase assay, RET M918T.
In the next assay the target is EGFR L858R (Homo sapiens, UniProt P00533, L858R). Format: biochemical. As to conditions: enzyme optimization; 2.5 nM EGFR L858R, 1 μM peptide, 100 μM ATP, 60 min.

Sequence of RET M918T (P07949 29-1114 M918T): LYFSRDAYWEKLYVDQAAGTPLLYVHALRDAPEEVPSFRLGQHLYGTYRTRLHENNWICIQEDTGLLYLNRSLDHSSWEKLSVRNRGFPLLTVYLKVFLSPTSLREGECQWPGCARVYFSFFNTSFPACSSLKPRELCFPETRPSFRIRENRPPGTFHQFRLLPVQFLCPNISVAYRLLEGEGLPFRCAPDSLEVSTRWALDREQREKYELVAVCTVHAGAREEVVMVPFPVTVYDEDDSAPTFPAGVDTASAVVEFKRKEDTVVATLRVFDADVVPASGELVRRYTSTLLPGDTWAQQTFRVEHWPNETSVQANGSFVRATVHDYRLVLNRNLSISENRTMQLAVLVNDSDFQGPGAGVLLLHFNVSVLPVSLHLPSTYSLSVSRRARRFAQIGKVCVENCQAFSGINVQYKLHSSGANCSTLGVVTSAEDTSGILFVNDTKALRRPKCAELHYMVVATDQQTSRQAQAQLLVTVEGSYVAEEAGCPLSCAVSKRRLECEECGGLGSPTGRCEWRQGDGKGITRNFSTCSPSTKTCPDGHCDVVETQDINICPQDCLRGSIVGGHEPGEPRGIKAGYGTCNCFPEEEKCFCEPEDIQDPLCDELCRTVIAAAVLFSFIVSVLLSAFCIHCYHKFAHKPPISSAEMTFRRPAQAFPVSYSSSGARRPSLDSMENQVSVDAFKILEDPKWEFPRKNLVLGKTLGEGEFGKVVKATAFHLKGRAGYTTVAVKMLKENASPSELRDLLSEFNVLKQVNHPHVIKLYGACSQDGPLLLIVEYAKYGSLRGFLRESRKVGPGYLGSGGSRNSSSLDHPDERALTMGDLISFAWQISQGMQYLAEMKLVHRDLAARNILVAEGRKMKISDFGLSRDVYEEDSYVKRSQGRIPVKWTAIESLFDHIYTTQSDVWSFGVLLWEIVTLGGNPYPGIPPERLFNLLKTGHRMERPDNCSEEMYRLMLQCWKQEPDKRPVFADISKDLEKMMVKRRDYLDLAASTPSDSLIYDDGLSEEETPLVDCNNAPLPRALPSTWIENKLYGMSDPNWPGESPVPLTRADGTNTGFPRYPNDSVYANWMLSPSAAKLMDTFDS

Consider `COc1ccc(CN2C3CC2CN(c2ccc(-c4cc(OCC(C)(C)O)cn5ncc(C#N)c45)cn2)C3)cn1` [selpercatinib, reference compound], for which the “potency in LIMS-Kinase assay compared to previously reported value” at RET M918T (0.7 nM vs. […]) is “more than six times higher”. Consider “MS-Csktide2: kinase substrate peptide, sequence KEEIYFFFG”, for which, in the assay with RET M918T (enzyme optimization, 2.5 nM RET M918T, 1 μM peptide, 100 μM ATP, 60 min), the substrate converted result is “Approximately 39%”. As for “MS-Csktide1: kinase substrate peptide, sequence KEEIYFFF”, the substrate converted result with EGFR L858R is “approximately 20%”.

For the origin of these results see paper PMC10783653 (Cell reports. Physical science, 2023).
